In patent publication US20250051409A1, “MODULATORS OF PHOSPHATIDYLSERlNE DECARBOXYLASE AND USE THEREOF” (THE NATIONAL INSTITUTE FOR BIOTECHNOLOGY IN THE NEGEV LTD., priority 2021, published 2025):
One block for each binder: values may come before it. Ends that are not written are not given here.

How the values were obtained:
[1] = target: T1, Purified recombinant protein (full length) of human phosphatidylserine decarboxylase (PSD), with N-terminal His tag, expressed in E. coli (Acris-OriGene) (human); test: microscale thermophoresis; fluorescently labelled PSD (0.25 µM) with peptide (1-10 µM)
T1 sequence (chain, fluorescently labelled in the MST assay with the peptides): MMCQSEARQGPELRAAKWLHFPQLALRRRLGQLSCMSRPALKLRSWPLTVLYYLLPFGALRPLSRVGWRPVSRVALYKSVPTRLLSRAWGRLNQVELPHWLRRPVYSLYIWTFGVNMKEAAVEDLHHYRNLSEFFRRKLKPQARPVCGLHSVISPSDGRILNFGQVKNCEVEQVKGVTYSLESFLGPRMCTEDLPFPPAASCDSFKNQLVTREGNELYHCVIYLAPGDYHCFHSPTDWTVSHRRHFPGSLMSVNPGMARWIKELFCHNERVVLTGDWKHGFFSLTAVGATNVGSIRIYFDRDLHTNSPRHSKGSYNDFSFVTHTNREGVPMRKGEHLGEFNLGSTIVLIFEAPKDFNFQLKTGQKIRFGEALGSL

[2] = target: T1, Purified recombinant protein (full length) of human phosphatidylserine decarboxylase (PSD), with N-terminal His tag, expressed in E. coli (Acris-OriGene) (human); test: cell-based or functional assay
[3] = target: T1, Purified recombinant protein (full length) of human phosphatidylserine decarboxylase (PSD), with N-terminal His tag, expressed in E. coli (Acris-OriGene) (human); test: MST, fluorescently labelled purified PSD 0.25 µM, peptide titrated 1-10 µM

- Kd [1]: 3000 nM
- inhibition of PSD activity (DSB-3 method) [2]: 1 µM
- EC50 (read off the curve) [3]: 3000 nM
B1: peptide 2F3, derived from MAML2 (peptide)
peptide: ALSTSSPIPSVPQSQAQPQTGSGAS

- Kd [1]: 3000 nM
- inhibition of PSD activity (DSB-3 method) [2]: 1 µM
- EC50 (read off the curve) [3]: 4000 nM
B2: peptide 1C11, derived from HTRA2 (peptide)
peptide: ALLTSGTSDPRARVTYGTPSLWARL
modifications: not fully specified
